Experiment [1] has as its target T1, recombinant human BTLA fusion protein (human, UniProt Q7Z6A9 31-156).
T1 construct: also called BTLA-Ig; BTLA Ig antigen; not shown: Ig fusion partner
In words: Biacore, BTLA fusion protein coupled to CM5 chip, antibody flowed at 267 nM. As for the experimental part:
Anti-BTLA antibodies were characterized for affinities and binding kinetics by Biacore analysis (Biacore AB, Uppsala, Sweden). Purified recombinant human BTLA fusion protein was covalently linked to a CM5 chip (carboxy methyl dextran coated chip) via primary amines, using standard amine coupling chemistry and kit provided by Biacore. Binding was measured by flowing the antibodies in HBS EP buffer (provided by Biacore AB) at a concentration of 267 nM at a flow rate of 50 μl/min. The antigen-antibody association kinetics was followed for 3 minutes and the dissociation kinetics was followed for 7 minutes. The association and dissociation curves were fit to a 1:1 Langmuir binding model using BIAevaluation software (Biacore AB). To minimize the effects of avidity in the estimation of the binding constants, only the initial segment of data corresponding to association and dissociation phases were used for fitting.

For experiment [2], the target named is T1, recombinant human BTLA fusion protein. In words: Biacore 3000, antibody captured by anti-CH1, BTLA fusion protein 200 nM in solution. The protocol:
The binding of the 1B4, E4H9, 3C2, 6A5, 11E2 and 10116 antibodies to recombinant BTLA protein was examined by BIAcore™ using an antibody capture method. Each of the six anti-BTLA monoclonal antibodies were captured using anti-CH1, a reagent antibody that is specific towards the heavy chain constant region 1 of human antibody (Zymed, Clone HP6045, Stock conc. 1.0 mg/mL). Anti-CH1 was coated on a CM5 chip (BR-1000-14, Research Grade) at high density (6200-7960 RUs). The coating was carried out based on the standard immobilization procedure recommended by the manufacturer. The 1B4, E4H9, 3C2, 6A5, 11E2 and 10116 purified antibodies, with concentrations ranging from 1-10 μg/mL, were each then captured on the anti-CH1 coated chip surface at a flow-rate of 10 μl/min for 0.5-1 minute. A single concentration of recombinant human BTLA fusion protein (200 nM) was injected over captured antibody for 4 minutes at a flow rate of […]. The antigen was allowed to dissociate for 10 minutes. The chip surface was regenerated after each cycle with 10 μL of 30 mM NaOH, followed by 30 μl of HBS EP wash. Isotype controls were run on the chip, and the data used to subtract non-specific binding. All the experiments were carried out on a Biacore 3000 surface plasmon resonance instrument, using BIAcore Control software v 3.2. Data analysis was carried out using BiaEvaluation v3.2 software.

For experiment [3], the target named is T2, recombinant human BTLA expressed at the cell surface of CHO cells (human, UniProt Q7Z6A9 31-289).
T2 construct: also called BTLA-CHO cells; BTLA CHO cells
T2 sequence (Q7Z6A9 31-289 R157S limits assumed): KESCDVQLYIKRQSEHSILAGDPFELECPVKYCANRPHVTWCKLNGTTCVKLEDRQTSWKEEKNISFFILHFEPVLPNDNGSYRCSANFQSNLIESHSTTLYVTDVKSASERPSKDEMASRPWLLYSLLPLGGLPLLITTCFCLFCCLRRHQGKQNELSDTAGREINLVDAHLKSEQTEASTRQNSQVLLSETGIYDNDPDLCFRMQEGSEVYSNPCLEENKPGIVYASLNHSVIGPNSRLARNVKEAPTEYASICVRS
In words: flow cytometry on BTLA-transfected CHO cells, PE anti-human IgG detection, MFI against log nM IgG. The protocol: Chinese hamster ovary (CHO) cell lines that express recombinant human BTLA at the cell surface were developed and used to determine the specificity of BTLA human monoclonal antibodies by flow cytometry. CHO cells were transfected with expression plasmids containing full length cDNA encoding transmembrane forms of BTLA. Binding of the anti-BTLA human monoclonal antibodies was assessed by incubating the transfected cells with the anti-BTLA human monoclonal antibodies at a concentration from 0.01 nM to 66 nM. The antibodies were incubated with 10⁵ BTLA CHO cells for 60 minutes at 4° C. in PBS1% BSA. […] The EC₅₀ was determined graphically by plotting the mean flourescence intensity (MFI) versus the log of the antibody concentration using Prism graphing software (GraphPad software). Flow cytometric analyses were performed using a FACSArray flow cytometry (Becton Dickinson, San Jose, Calif.). The results are depicted in FIG. 28A.
(Flow cytometry measures light scatter and fluorescence of single cells or particles in a stream.)

The target in the next experiment is T3, TrkB-Ig (human, UniProt Q16620).
T3 construct: extracellular domain
In words: ELISA, plate coated with receptor-Ig fusion, antibody at 1 ug/mL, HRP-conjugated detection antibody. The protocol:
(§1) ELISA plates were coated overnight with fusion proteins consisting of the extracellular domains of a panel of CD28 receptor family molecules fused to the Fc portion of human IgG (Table 4). The plates were washed and blocked to minimize non-specific binding. A panel of anti-BTLA antibodies and isotype control antibodies (Table 5), and positive control detection antibodies (Table 3), all diluted to 1 ug/mL, were added in duplicate to the assay plates for one hour. After extensive washing the appropriate HRP-conjugated detection antibodies were added to the plates for one hour followed by washing and development using 3, 3′, 5, 5′-tetramethylbenzidine (TMB) as substrate. Optical density measurements at 650 nm were recorded.
A general note: ELISA stands for enzyme-linked immunosorbent assay.

For a further experiment, the target named is PD1-Ig. The description is as above. The protocol:
as §1

In another experiment the target is T4, CTLA4-Ig (human, UniProt P16410).
T4 construct: extracellular domain
T4 sequence (P16410 36-161): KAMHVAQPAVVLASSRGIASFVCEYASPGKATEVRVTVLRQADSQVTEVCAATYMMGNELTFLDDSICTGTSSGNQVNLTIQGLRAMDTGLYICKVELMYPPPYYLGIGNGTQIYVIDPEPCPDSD
The experiment is described as above. The protocol: as §1

Experiment [4] concerns the target T2, recombinant human BTLA expressed at the …. In words: FACS blocking assay: antibody pre-incubated with BTLA-CHO cells, then 0.5 ug/ml biotin HVEM Ig, streptavidin-PE detection. As for the experimental part:
The ability of BTLA Mabs to block binding of BTLA to HVEM was also determined by FACS, and is expressed as the concentration of anti-BTLA IgG to block half the maximal binding of HVEM Ig to 10⁵ BTLA CHO cells (IC₅₀). BTLA CHO cells and antibody at various concentrations were pre-incubated for 30 minutes at 4° C., and then 0.5 ug/ml biotin labeled HVEM Ig (R & D Systems BAF 356) was added to the BTLA CHO-IgG mix and incubated for another 30 minutes. Cells were washed 2× in PBS-1% BSA, and binding of biotin HVEM Ig was detected by FACS after staining the cells with streptavidin-PE (BD Parmingen 3554061). IC₅₀ values were determined graphically using the Prism software (GraphPad Software). Results are depicted in FIG. 28B and FIG. 28C.

The target in the next experiment is T5, ICOS-Ig (human, UniProt Q9Y6W8).
T5 construct: extracellular domain
T5 sequence (fusion chain, looked up): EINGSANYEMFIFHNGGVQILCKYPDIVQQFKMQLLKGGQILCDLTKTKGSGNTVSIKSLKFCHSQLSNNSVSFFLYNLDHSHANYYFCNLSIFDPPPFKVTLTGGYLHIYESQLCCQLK
In words: ELISA, plate coated with receptor-Ig fusion, antibody at 1 ug/mL, HRP-conjugated detection antibody. As for the experimental part:
as §1

Another experiment addresses T6, CD28-Ig (human, UniProt P10747).
T6 construct: extracellular domain
Described as above. The protocol:
as §1

Sequence of PD1-Ig (chain, as listed by the source limits assumed): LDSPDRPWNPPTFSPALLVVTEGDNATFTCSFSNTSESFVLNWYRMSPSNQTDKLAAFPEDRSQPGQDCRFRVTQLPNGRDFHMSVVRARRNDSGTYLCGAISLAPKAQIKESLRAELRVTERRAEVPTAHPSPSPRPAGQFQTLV
T1 sequence (Q7Z6A9 other isoform, or with tags, fused parts or gaps): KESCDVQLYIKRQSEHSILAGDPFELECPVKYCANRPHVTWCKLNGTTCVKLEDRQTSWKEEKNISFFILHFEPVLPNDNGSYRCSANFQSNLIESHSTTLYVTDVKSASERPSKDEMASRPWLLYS

B1: 1B4 human monoclonal antibody (antibody, IgG1, V domains shown)
VH: QITLKESGPTLVKPTQTLTLTCTFSGFSLNTIGVGVNWIRQPPGKALEWLALIYWDDDKRYSPSLKRRLTISKDTSKNQVVLTMTNMDPVDTATYYCAHSGITEVRGVIIHYYGMDVWGQGTTVTVSS
VL: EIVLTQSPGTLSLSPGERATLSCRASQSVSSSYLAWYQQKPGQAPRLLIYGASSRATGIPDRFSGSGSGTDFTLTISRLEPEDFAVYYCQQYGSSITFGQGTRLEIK
notes: human antibody purified from hybridoma, kappa light chain (VK A27)
Broadly, the Kd is a measure of binding affinity in units of concentration. By koff is commonly meant the rate constant with which the complex falls apart. As a reminder, the kon is a measure of how fast the partners come together. As usually defined, the EC50 is the concentration that produces a half-maximal response. Usually IC50 stands for the concentration that inhibits the measured activity by half. On to B1, for which the Kd came out at 2.88 nM in experiment [1] and 5.74 nM in experiment [2]. For the same molecule, the koff in [2] was determined as 0.000284 s⁻¹. Besides, the kon in experiment [2] turned out to be 49400 M⁻¹ s⁻¹. Further, the EC50 in experiment [3] came to 1.34 nM. Also, the binding result with TrkB-Ig, with PD1-Ig and with CTLA4-Ig was “no binding (tested: 1 ug/mL)” each time. For the same molecule, the IC50 in experiment [4] is 1.9 nM.

B2: 11-E8D9 (antibody, V domains shown)
VH: QITLKESGPTLVKPTQTLTLTCTFSGFSLSTSGVGVGWIRQPPGKALEWLALIYWDDDKRYSPSLKSRLTITKDTSKNQVVLTMTNMDPVDTATYYCAHTSITEVRGAIIYYYGMDVWGQGTTVTVSS
VL: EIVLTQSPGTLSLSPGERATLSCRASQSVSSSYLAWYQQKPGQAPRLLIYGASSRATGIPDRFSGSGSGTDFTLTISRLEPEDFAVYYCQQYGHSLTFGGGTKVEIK
notes: also called 11E8D9.3; E8D9 human monoclonal antibody
On to B2, for which the 50% effective concentration (EC50) in experiment [3] stood at 0.373 nM. The binding result with TrkB-Ig, in the experiment with PD1-Ig and in the experiment with CTLA4-Ig was “no binding (tested: 1 ug/mL)” throughout. Besides, the concentration for half-maximal inhibition (IC50) in experiment [4] worked out at 0.34 nM.

B3: 6A5 human monoclonal antibody (antibody, V domains shown)
VH: QITLKESGPTLVKPTQTLTLTCTFSGFSLSTSGVGVGWIRQPPGKALEWLALIYWDDDKRYSPSLKSRLTITKDTSKNQVVLTMANMDPVDTATYYCAHIRITEVRGVIISYYGMDVWGQGTTVTVSS
VL: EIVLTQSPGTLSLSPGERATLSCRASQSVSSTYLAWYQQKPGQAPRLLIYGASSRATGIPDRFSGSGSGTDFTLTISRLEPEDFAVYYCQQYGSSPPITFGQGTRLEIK
notes: kappa light chain (VK A27)
For B3, the binding result in the experiment with TrkB-Ig, with PD1-Ig and with CTLA4-Ig was “no binding (tested: 1 ug/mL)” each time.

B4: 11-4C9 (antibody, V domains shown)
VH: QITLKESGPTLVKPTQTLTLTCTFSGFSLSTSGVGVAWIRQPPGKALEWLALIYWDDDKRYSPSLKSRLTITKDTSKNQVVLTMSNMDPVDTATYYCAHTRIAEVRGVIYYYYGIDVWGQGTTVTVSS
VL: EIVLTQSPGTLSLSPGERATLSCRASQSVSSTYLVWYQQKPGQAPRLLIYGASSRATGIPDRFSGSGSGTDFTLTISRLEPEDFAVYYCQQYGSSWTFGQGTKVEIK
notes: The prefix 11- appears only on the sheets; also called 4C9 human monoclonal antibody
For B4, the EC50 in experiment [3] is 1.56 nM. Also, in experiment [4], the half-inhibitory concentration (IC50) stood at 1.02 nM.

B5: 3C2 human monoclonal antibody (antibody, IgG1, V domains shown)
VH: QVQLQESGPGLVKPSETLSLTCTISGGSISNYYWNWIRQPPGKGLEWIGYIYYSTSTKYNPSLKSRVTMSVETSKNQFSLKLSSVTAADTAVYYCARVKVYSTGWFFDYWGQGTLVTVSS
VL: AIQLTQSPSSLSASVGDRVTITCRASQGISSALAWYQQKPGKAPKLLIYDASSLESGVPSRFSGSGSGTDFTLTISSLQPEDFATYYCQQFNSYPLTFGGGTKVEIK
Take B5: the figures for the Kd in [1] and in experiment [2] were 0.88 nM and 6.65 nM, respectively. For the same molecule, the koff in [2] was 0.000301 s⁻¹. For the same molecule, the kon in experiment [2] stood at 45200 M⁻¹ s⁻¹. In addition, in [3], the 50% effective concentration (EC50) was 1.78 nM. In addition, the binding result with TrkB-Ig, in the experiment with PD1-Ig, in the experiment with CTLA4-Ig, in the experiment with ICOS-Ig and with CD28-Ig was “no binding (tested: 1 ug/mL)” in each case. The concentration for half-maximal inhibition (IC50) in [4] was found to be 1.97 nM.

B6: 11E2 human monoclonal antibody (antibody, IgG1, V domains shown)
VH: EVQLVESGGGVIRPGGSLRLSCAASGFTFDDYGMSWVRQAPGKGLEWVSGINWNGGSTGYAASVKGRFTISRDNAKNSLYLQMNSLRAEDSALYYCARDYYYGPGSPNYFYYAMDVWGQGTTVTVSS
VL: DIQMTQSPSSLSASVGDRVTITCRASQGISSWLAWYQQKPEKAPKSLIYAASSLQSGVPSRFSGSGSGTDFTLTISSLQPEDFATYYCQQYNSYPRTFGQGTKVEIK
notes: kappa light chain (VK L15)
Turning to B6, the dissociation constant (Kd) in experiment [1] amounted to 0.61 nM. For the same molecule, the concentration giving a half-maximal response (EC50) in experiment [3] amounted to 3.25 nM. In addition, the binding result in the experiment with TrkB-Ig, with PD1-Ig, with CTLA4-Ig, with ICOS-Ig and in the experiment with CD28-Ig was “no binding (tested: 1 ug/mL)” throughout. Also, the concentration for half-maximal inhibition (IC50) in experiment [4] worked out at 2.73 nM.

B7: 10H6 human monoclonal antibody (antibody, V domains shown)
VH: QVQLVESGGGVVQPGRSLRLSCAASGFTFSSYDMHWVRQAPGKGLEWVAAIWNDGSNKYYADSVKGRFTISRDNSKNTLYLQMNSLRAEDTAVYYCARDRITMVRGVITQYYGMDVWGQGTTVTVSS
VL: DIQLTQSPSSLSASVGDRVTITCRVSQGISSYLNWYRQKPGKVPKLLIYSASNLQSGVPSRFSGSGSGTDFTLTISSLQPEDVATYYGQRTYNAPYTFGQGTKLEIK
For the molecule B7, in [2], the equilibrium dissociation constant (Kd) was 3.82 nM, the off-rate (koff) came to 0.000153 s⁻¹ and the kon came to 40000 M⁻¹ s⁻¹. The EC50 in experiment [3] was found to be 1.89 nM. The IC50 in experiment [4] was determined as 2.13 nM.

B8: E4H9 human monoclonal antibody (antibody, V domains shown)
VH: QVTLRESGPALVKPTQTLTLTCTFSGFSLSTSGMCVSWIRQPPGKALEWLALIDWDDVKYYSSSLKTRLTISKDTSKNQVVLTMTDMDPVDTATYYCARIRFTMFRGVYYYYYGLDVWGQGTTVTVSS
VL: not shown
notes: kappa light chain (VK A27)
As for B8, the Kd in experiment [1] amounted to 0.13 nM; in [2], 0.006 nM. Moreover, the off-rate constant (koff) in [2] came out at 3e-07 s⁻¹. The kon in experiment [2] came out at 45700 M⁻¹ s⁻¹. Also, the EC50 in [3] came to 1.55 nM. Besides, the binding result with TrkB-Ig, with PD1-Ig and in the experiment with CTLA4-Ig was “no binding (tested: 1 ug/mL)” each time. In experiment [4], the IC50 was 1.05 nM.

For the origin of these results see patent US20100172900A1 (Bristol-Myers Squibb, published 2010).
